Results reported in publication PMC9169696 (ACS applied materials & interfaces, 2021).
Square brackets hold non-standard residues; d marks the D form. Ends that are not written are not given here.

B1: HLT2 peptide gel (peptide)
peptide: VLTKVKTKV[code p]PTKVEVKVLV-NH2

Columns and labels:
HLT2 peptide gel = biological target: B1; experiment: depletion from the supernatant
bovine serum albumin = bovine serum albumin (bovine, UniProt P02769 25-607); experiment: affinity purification with mass spectrometry
[1] = biological target: BSA fluorescein isothiocyanate conjugate (bovine, UniProt P02769 25-607, fluorescein isothiocyanate conjugate (sites not given)); experiment: light absorption and fluorescence imaging of the gel
BSA fluorescein isothiocyanate conjugate, sequence (P02769 25-607): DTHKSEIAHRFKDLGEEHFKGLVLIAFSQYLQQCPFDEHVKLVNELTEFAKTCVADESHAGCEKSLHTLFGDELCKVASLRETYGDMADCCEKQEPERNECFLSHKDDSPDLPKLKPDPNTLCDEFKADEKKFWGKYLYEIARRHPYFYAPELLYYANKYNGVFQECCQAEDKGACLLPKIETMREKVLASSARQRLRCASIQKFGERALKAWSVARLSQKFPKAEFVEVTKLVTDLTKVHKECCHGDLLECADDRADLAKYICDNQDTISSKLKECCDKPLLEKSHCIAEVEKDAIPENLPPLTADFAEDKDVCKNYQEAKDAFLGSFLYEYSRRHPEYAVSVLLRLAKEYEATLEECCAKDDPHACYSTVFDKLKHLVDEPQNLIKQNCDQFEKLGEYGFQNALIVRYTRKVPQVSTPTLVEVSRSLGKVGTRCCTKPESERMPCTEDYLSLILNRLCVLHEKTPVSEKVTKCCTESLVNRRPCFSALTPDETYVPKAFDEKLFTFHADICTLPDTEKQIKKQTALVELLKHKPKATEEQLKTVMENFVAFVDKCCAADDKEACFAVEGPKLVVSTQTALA

bovine serum albumin, sequence (P02769 25-607): as above

concentration adsorbed with respect to total gel volume (HLT2 peptide gel) [mg/mL] | percent of the added protein adsorbed (HLT2 peptide gel) [%] | binding result (bovine serum albumin) | binding result [1] | Binder
0.1 | 87 | – | – | fluorescein-labeled VN (natural protein, human, UniProt P04004 20-478, looked up, fluorescein (from NHS-fluorescein; sites not stated)) DQESCKGRCTEGFNVDKKCQCDELCSYYQSCCTDYTAECKPQVTRGDVFTMPEDEYTVYDDGEEKNNATVHEQVGGPSLTSDLQAQSKGNPEQTPVLKPEEEAPAPEVGASKPEGIDSRPETLHPGRPQPPAEEELCSGKPFDAFTDLKNGSLFAFRGQYCYELDEKAVRPGYPKLIRDVWGIEGPIDAAFTRINCQGKTYLFKGSQYWRFEDGVLDPDYPRNISDGFDGIPDNVDAALALPAHSYSGRERVYFFKGKQYWEYQFQHQPSQEECEGSSLSAVFEHFAMMQRDSWEDIFELLFWGRTSAGTRQPQFISRDWHGVPGQVDAAMAGRIYISGMAPRPSLAKKQRFRHRNRKGYRSQRGHSRGRNQNSRRPSRATWLSLFSSEESNLGANNYDDYRMDWLVPATCEPIQSVFFFSGDKYYRVNLRTRRVDTVDPPYPRSIAQYWLGCPAPGHL
– | – | binds | binds | B1
6.8 | 85 | – | – | fluorescein-labeled Fet-A (natural protein, bovine, UniProt P12763 19-359, looked up, fluorescein (from NHS-fluorescein; sites not stated)) IPLDPVAGYKEPACDDPDTEQAALAAVDYINKHLPRGYKHTLNQIDSVKVWPRRPTGEVYDIEIDTLETTCHVLDPTPLANCSVRQQTQHAVEGDCDIHVLKQDGQFSVLFTKCDSSPDSAEDVRKLCPDCPLLAPLNDSRVVHAVEVALATFNAESNGSYLQLVEISRAQFVPLPVSVSVEFAVAATDCIAKEVVDPTKCNLLAEKQYGFCKGSVIQKALGGEDVRVTCTLFQTQPVIPQPQPDGAEAEAPSAVPDAAGPTPSAAGPPVASVVVGPSVVAVPLPLHRAHYDLRHTFSGVASVESSSGEAFHVGKTPIVGQPSIPGGPVRLCPGRIRYFKI
